In US20200397917, “ENGINEERED DNA BINDING PROTEINS” (Encoded Therapeutics, Inc., published 2020):

Experiments:
ZF DBD-CITED2 = ZF DBD-CITED2 (synthetic); experiment: cell_activity; versus reporter alone; conditions: tags: NLS; CITED2
Protocol: (§1) HEK293 cells were cultured per standard methods, and co-transfected (FuGene HD, Promega) with 1.5 ug of a reporter plasmid consisting of EGFP under the control of a tetracycline-responsive element (TRE) tight promoter, and 1.5 ug of each tested activator, or empty vector control (pUC57). 48h following transfection, cells were imaged using an epifluorescent microscope for GFP expression. The cells were collected and RNA was isolated (Qiagen RNeasy Mini kit), and DNase treated. RNA (3 ug) was reverse transcribed using OligoDT primers (Superscript IV, Invitrogen). cDNA samples were analyzed by qPCR using Phusion Polymerase (New England Biolabs) and SYBR Green I: (30s at 98° C., 40×[10 sec at 98° C., 15 sec at 65° C., 15 sec at 72° C.]). Primers against EGFP (5′-[…]-3′ (SEQ ID NO: 369); 5′-[…]-3′ (SEQ ID NO: 370)) were used to quantify levels of reporter-driven EGFP transcript, and relative levels of EGFP expression were determined by the delta-delta Ct method with GAPDH as a reference gene (5′-[…]-3′ (SEQ ID NO: 192); 5′-[…]-3′ (SEQ ID NO: 193)).
(§2) Data are presented as fold changes relative to the control condition.

ZF DBD-CITED4 = ZF DBD-CITED4 (synthetic); experiment: cell_activity; versus reporter alone; conditions: tags: NLS; CITED4
Chain of ZF DBD-CITED4 (synthetic) (chain, as listed by the source): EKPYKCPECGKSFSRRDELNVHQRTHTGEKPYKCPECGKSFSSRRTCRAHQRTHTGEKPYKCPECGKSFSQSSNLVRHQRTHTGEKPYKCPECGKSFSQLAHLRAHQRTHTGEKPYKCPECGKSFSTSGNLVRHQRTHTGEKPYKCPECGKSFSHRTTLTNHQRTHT
Protocol: as §1, §2

[1] = target: EGR3-based eTF, 6 ZF (TRE) (synthetic); experiment: cell_activity; versus control SEQ 187
Chain of EGR3-based eTF, 6 ZF (TRE) (synthetic) (chain, as listed by the source): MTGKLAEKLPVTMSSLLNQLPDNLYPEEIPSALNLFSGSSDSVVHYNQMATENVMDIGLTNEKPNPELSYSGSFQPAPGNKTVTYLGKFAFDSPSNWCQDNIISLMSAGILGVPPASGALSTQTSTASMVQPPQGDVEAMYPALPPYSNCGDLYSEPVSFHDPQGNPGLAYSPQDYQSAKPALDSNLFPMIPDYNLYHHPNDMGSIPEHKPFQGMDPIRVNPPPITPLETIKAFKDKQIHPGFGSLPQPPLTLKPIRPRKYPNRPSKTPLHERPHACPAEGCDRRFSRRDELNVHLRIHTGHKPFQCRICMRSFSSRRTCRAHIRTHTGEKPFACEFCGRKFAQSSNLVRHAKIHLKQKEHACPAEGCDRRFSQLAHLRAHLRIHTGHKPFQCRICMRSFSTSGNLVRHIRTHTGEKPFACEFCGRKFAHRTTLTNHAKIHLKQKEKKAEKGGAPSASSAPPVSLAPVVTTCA
Protocol: as §1, §2

[2] = target: EGR1-based eTF, synthetic 6-ZF DBD (synthetic); experiment: cell_activity; EGFP reporter
Chain of EGR1-based eTF, synthetic 6-ZF DBD (synthetic) (chain, as listed by the source): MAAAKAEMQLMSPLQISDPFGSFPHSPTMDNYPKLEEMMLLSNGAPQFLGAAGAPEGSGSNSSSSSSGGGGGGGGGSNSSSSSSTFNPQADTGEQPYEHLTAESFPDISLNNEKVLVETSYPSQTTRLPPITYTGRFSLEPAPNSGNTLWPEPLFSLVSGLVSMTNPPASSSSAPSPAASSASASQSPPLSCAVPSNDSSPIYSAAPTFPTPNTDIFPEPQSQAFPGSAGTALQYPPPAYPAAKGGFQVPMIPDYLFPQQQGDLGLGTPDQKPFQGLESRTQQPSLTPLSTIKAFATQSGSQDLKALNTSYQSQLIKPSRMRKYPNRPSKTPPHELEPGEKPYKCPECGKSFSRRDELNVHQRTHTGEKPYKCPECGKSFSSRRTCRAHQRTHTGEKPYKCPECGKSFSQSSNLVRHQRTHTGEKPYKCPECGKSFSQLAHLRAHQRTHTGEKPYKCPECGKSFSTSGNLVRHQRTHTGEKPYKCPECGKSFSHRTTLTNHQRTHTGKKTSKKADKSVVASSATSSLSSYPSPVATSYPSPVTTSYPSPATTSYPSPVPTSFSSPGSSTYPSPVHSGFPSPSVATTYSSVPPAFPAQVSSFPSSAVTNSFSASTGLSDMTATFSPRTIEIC
Protocol: as §1, §2

[3] = target: EGR1-based eTF, duplicated 6 ZF (TRE) (synthetic); experiment: cell_activity; EGFP reporter
Chain of EGR1-based eTF, duplicated 6 ZF (TRE) (synthetic) (chain, as listed by the source): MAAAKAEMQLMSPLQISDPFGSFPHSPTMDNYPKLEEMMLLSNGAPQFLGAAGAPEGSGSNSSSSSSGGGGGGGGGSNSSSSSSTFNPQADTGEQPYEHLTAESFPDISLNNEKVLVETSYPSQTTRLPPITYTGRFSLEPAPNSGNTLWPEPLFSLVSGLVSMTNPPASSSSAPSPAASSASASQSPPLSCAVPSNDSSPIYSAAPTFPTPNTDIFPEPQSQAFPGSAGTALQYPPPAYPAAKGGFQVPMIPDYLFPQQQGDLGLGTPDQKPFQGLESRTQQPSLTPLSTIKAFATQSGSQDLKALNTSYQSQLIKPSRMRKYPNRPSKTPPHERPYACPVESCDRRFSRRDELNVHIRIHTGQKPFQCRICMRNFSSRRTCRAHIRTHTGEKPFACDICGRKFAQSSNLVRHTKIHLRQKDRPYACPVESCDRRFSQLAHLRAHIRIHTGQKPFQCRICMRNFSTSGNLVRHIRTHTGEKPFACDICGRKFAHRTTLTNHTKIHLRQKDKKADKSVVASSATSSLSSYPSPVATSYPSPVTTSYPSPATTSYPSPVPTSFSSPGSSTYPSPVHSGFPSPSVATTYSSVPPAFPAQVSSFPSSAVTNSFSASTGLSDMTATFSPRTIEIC
Protocol: as §1, §2

ZF DBD-VP64 = ZF DBD-VP64 (synthetic); experiment: cell_activity; EGFP reporter; about 40-fold in FIG. 33B; conditions: tags: NLS
Protocol: as §1, §2

[4] = target: EGR1-based eTF, 6 ZF (SCN1A) (synthetic); experiment: cell_activity; endogenous SCN1A, HEK293
Chain of EGR1-based eTF, 6 ZF (SCN1A) (synthetic) (chain, as listed by the source): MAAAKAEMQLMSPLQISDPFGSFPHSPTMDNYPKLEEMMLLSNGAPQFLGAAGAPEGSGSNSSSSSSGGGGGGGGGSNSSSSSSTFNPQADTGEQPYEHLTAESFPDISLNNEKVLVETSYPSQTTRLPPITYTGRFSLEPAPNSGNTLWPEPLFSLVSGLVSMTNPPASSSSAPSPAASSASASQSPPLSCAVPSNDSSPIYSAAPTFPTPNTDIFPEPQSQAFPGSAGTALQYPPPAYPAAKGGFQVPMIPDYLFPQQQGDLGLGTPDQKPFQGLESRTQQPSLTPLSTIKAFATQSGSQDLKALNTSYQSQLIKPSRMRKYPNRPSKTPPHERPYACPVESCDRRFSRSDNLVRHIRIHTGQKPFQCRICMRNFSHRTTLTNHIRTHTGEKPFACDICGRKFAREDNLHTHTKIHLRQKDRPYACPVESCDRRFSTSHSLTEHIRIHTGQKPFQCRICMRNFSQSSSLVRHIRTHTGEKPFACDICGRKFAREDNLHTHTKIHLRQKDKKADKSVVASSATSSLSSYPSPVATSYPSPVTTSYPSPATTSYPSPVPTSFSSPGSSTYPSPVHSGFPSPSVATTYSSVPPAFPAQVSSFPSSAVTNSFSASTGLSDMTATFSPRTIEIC
Protocol: (§3) HEK293 cells were cultured per standard methods, and transfected (FuGene HD, Promega) with 3 ug of each tested activator, or an EGFP control. 48h following transfection, cells were collected and RNA was isolated (Qiagen RNeasy Mini kit), and DNase treated. RNA (3 ug) was reverse transcribed using OligoDT primers (Superscript IV, Invitrogen). cDNA samples were analyzed by qPCR using Phusion Polymerase (New England Biolabs) and SYBR Green I: (30s at 98° C., 40×[10 sec at 98° C., 15 sec at 68° C., 15 sec at 72° C.]). Primers against human SCN1A (5′-[…]-3′ (SEQ ID NO: 190); 5′-[…]-3′ (SEQ ID NO: 191)) were used to quantify levels of reporter-driven EGFP transcript, and relative levels of EGFP expression were determined by the delta-delta Ct method with GAPDH as a reference gene (5′-[…]-3′ (SEQ ID NO: 192); 5′-[…]-3′ (SEQ ID NO: 193)). Data are presented as fold changes relative to the control condition. SEQ ID NOs: 6, 7, and 9 are eTFs derived from human EGR1 protein and are engineered to bind to a target site near or at endogenous SCN1A gene, wherein the target site is SEQ ID NOs: 35-37.

[5] = target: EGR1-based eTF, 9 ZF (SCN1A) (synthetic); experiment: cell_activity; endogenous SCN1A, HEK293
Chain of EGR1-based eTF, 9 ZF (SCN1A) (synthetic) (chain, as listed by the source): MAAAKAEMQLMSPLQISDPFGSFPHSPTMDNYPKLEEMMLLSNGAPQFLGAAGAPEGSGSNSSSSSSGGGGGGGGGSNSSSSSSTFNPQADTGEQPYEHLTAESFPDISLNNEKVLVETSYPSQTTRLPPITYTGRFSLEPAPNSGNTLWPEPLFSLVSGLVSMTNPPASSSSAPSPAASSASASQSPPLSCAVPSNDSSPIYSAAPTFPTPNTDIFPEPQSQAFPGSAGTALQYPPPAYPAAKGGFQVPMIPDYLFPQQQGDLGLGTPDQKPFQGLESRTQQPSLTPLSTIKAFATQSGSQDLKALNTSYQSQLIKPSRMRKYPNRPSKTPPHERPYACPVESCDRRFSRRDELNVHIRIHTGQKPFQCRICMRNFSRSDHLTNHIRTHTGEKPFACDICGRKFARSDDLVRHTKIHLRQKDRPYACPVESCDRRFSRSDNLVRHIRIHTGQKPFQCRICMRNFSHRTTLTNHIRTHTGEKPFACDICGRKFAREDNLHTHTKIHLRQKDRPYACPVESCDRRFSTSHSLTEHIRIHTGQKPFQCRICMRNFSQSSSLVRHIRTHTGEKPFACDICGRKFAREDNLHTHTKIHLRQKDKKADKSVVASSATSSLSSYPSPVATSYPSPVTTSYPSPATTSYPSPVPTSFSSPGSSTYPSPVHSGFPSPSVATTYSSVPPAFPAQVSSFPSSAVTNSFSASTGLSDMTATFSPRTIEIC
Protocol: as §3

EGR1-based eTF, 3 ZF = EGR1-based eTF, 3 ZF (synthetic, UniProt P18146 SEQ:1-543); experiment: cell_activity; EGFP reporter
Chain of EGR1-based eTF, 3 ZF (P18146 other isoform, or with tags, fused parts or gaps): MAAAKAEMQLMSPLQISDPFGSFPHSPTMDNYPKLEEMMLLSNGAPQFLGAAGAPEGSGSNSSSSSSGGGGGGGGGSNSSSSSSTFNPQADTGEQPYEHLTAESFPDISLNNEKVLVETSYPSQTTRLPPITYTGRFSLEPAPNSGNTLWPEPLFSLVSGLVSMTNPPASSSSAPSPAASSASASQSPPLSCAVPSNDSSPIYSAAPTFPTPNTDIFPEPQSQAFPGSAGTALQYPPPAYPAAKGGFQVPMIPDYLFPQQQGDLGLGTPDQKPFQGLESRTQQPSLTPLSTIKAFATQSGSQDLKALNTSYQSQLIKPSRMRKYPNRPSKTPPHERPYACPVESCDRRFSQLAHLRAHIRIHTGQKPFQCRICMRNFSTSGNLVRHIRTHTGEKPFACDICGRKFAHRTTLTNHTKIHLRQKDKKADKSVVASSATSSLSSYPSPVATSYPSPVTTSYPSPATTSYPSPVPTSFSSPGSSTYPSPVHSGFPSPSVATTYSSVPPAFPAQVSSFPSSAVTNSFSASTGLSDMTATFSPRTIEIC
Protocol: as §1, §2

B1: TRE reporter site (dsDNA)
DNA 1: AGTGATAGAGAACGTATG
DNA 2: CATACGTTCTCTATCACT
B1 gave an activity (ZF DBD-CITED2) of about 15 fold EGFP, an activity (ZF DBD-CITED4) of about 10 fold EGFP and an activity [1] of at least 5 fold EGFP. For the same binder, the activity [2] was 10 fold EGFP, the activity [3] was 15 fold EGFP and the activity (ZF DBD-VP64) was 70 fold EGFP.

B2: SCN1A site 36 (dsDNA)
DNA 1: TAGGTACCATAGAGTGAG
DNA 2: CTCACTCTATGGTACCTA
With B2 the activity [4] was about 7 fold SCN1A.

B3: SCN1A site 37 (dsDNA)
DNA 1: TAGGTACCATAGAGTGAGGCGAGGATG
DNA 2: CATCCTCGCCTCACTCTATGGTACCTA
B3 was tested, and the activity [5] was about 20 fold SCN1A.

B4: TRE reporter 9-nt site (dsDNA)
DNA 1: AGTGATAGA
DNA 2: TCTATCACT
B4 gave an activity (EGR1-based eTF, 3 ZF) of 3 fold EGFP.
